Reference: article doi:10.1101/2023.06.15.545204

Biological target: BST4-mScarlet-I (Chlamydomonas reinhardtii)
Experiment: Slimfield microscopy with single particle tracking and molecular counting

- interval between stoichiometry peaks: 5
- stoichiometry N: 5
Substance: BST4-mScarlet-I (natural protein)
